Patent US20110274691A1 (Amgen, published 2011)

What was measured:
[1] = biological target: T1, human ferroportin (human, UniProt Q9NP59 1-571); assay: cell-based or functional assay
T1 sequence: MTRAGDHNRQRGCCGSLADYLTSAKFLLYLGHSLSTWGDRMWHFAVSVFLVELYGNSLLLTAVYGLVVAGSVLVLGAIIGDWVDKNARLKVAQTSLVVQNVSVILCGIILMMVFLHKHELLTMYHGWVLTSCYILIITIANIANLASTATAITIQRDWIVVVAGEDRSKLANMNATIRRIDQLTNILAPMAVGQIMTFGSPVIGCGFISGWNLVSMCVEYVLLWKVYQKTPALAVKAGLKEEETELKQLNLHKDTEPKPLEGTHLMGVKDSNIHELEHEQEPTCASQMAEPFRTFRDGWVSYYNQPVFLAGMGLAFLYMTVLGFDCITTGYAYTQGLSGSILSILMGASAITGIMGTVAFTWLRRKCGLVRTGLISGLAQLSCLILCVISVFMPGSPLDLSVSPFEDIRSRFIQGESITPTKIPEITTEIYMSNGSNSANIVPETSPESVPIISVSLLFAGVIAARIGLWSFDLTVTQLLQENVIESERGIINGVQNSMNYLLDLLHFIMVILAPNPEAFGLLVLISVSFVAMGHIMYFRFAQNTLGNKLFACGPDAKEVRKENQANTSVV

[2] = biological target: T2, ferroportin fragment AFLYMTVLGF (amino acids 315-324 of SEQ ID NO: 16) (human); assay: PepSpot peptide array, 1 ug/mL antibody
T2 construct: PepSpot array of overlapping 10-mers on cellulose membrane
T2 peptide: AFLYMTVLGF
Description: (§1) The PepSpot technique (Heiskanen et al., Virology, 262:321-332, 1999) was used to identify the binding epitopes on ferroportin for human antibodies 37A2, 37B9, 37C8, 37G8, 38A4, 38C8, 38D2, 38E3 and 38G6. Briefly, an array of overlapping 10-mer peptides was synthesized on a cellulose membrane by a solid phase peptide synthesis spotting method. These peptide sequences were derived from amino acids 1-571 of SEQ ID NO: 16. The array was then soaked in 0.05% Tween-20/PBS (PBS-T), blocked with 5% BSA in PBS-T for 3 hours at room temperature and subsequently washed three times with PBS-T. The prepared array was then incubated for 90 minutes at room temperature with 1 μg/mL solution of antibodies 37A2, 37B9, 37C8, 37G8, 38A4, 38C8, 38D2, 38E3 or 38G6 in 5% nonfat dry milk. After binding, the membrane was washed three times with PBS-T and subsequently incubated for 1 hour at room temperature with a goat anti-human light chain antibody conjugated to horseradish peroxidase diluted 1:50,000 in 5% nonfat dry milk. The membrane was then washed three times with PBS-T and any binding was determined using chemiluminescence detection on X-ray film.
(§2) Antibodies 37A2, 37B9, 37C8, 37G8, 38A4, 38C8, 38D2, 38E3 and 38G6 bound to epitopes within, overlapping or near loops 1, 2, 3 and 4 of the ferroportin sequence set forth in FIG. 1A.

[3] = biological target: T3, ferroportin-V5 (human, UniProt Q9NP59 1-571); assay: cell-based or functional assay
T3 sequence: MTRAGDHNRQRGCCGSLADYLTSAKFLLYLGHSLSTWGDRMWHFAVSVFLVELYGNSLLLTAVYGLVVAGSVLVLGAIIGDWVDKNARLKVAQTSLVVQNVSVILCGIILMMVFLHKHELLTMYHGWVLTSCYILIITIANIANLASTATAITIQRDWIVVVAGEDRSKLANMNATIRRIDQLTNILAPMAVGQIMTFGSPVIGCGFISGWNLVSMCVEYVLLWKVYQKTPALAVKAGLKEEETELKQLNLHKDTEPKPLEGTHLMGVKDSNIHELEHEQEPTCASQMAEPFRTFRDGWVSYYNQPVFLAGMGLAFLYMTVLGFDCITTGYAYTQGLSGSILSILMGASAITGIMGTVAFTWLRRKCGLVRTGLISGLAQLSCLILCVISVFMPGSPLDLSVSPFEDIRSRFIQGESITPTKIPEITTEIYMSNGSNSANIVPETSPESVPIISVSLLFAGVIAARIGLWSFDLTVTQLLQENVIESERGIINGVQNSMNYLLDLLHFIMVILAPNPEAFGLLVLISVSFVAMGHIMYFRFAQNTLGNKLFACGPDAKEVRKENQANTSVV

[4] = biological target: T4, ferroportin fragment TEIYMSNGSNSA (amino acids 428-439 of SEQ ID NO: 16) (human); assay: PepSpot peptide array, 1 ug/mL antibody
T4 construct: Stretch covered by several overlapping 10-mers of the PepSpot array; 12 residues as printed
T4 peptide: TEIYMSNGSNSA
Description: as §1, §2

[5] = biological target: T5, ferroportin fragment SITPTKIPEI (amino acids 417-426 of SEQ ID NO: 16) (human); assay: PepSpot peptide array, 1 ug/mL antibody
T5 construct: PepSpot array of overlapping 10-mers on cellulose membrane
T5 peptide: SITPTKIPEI
Description: as §1, §2

[6] = biological target: T6, ferroportin fragment ITTEIYMSNGSNS (amino acids 426-438 of SEQ ID NO: 16) (human); assay: PepSpot peptide array, 1 ug/mL antibody
T6 construct: Stretch covered by several overlapping 10-mers of the PepSpot array; 13 residues as printed
T6 peptide: ITTEIYMSNGSNS
Description: as §1, §2

[7] = biological target: T7, ferroportin fragment YHGWVLTSCY (amino acids 124-133 of SEQ ID NO: 16) (human); assay: PepSpot peptide array, 1 ug/mL antibody
T7 construct: PepSpot array of overlapping 10-mers on cellulose membrane
T7 peptide: YHGWVLTSCY
Description: as §1, §2

[8] = biological target: T8, ferroportin fragment RDGWVSYYNQ (amino acids 296-305 of SEQ ID NO: 16) (human); assay: PepSpot peptide array, 1 ug/mL antibody
T8 construct: PepSpot array of overlapping 10-mers on cellulose membrane
T8 peptide: RDGWVSYYNQ
Description: as §1, §2

[9] = biological target: T9, ferroportin peptide Fc conjugate 2 (Peptide 2: ITIQRDWIVVVAGEDRSKLANMNATIRRIDQL, amino acids 152-183 of SEQ … (human)); assay: Western blot of peptide-Fc conjugates
T9 construct: not shown: Fc moiety
T9 chain: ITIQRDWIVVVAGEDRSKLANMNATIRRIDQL
Experimental: (§3) 31A5 was then tested by Western analysis for its ability to recognize a panel of ferroportin peptide-Fc conjugates, where the peptide moiety was derived from different, non-overlapping regions of the ferroportin sequence. 500 ng of ferroportin peptide Fc conjugates 1-5 (Peptide 1: […], amino acids 75-96 of SEQ ID NO: 16; Peptide 2: […], amino acids 152-183 of SEQ ID NO: 16; Peptide 3: […], amino acids 330-338 of SEQ ID NO: 16; Peptide 4: […], amino acids 393-446 of SEQ ID NO: 16; and Peptide 5: […], amino acids: 542-571 of SEQ ID NO: 16) were run on a NuPAGE 4-12% gel, transferred to a nitrocellulose membrane and probed using […] 31A5 followed by an anti-mouse secondary antibody.

[10] = biological target: T10, ferroportin peptide Fc conjugate 5 (Peptide 5: AQNTLGNKLFACGPDAKEVRKENQANTSVV, amino acids 542-571 of SEQ ID … (human)); assay: Western blot of peptide-Fc conjugates
T10 construct: not shown: Fc moiety
T10 chain: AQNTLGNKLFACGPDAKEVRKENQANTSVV
Experimental: as §3

[11] = biological target: T11, ferroportin peptide sequence ANIVPETSPES (residues 439-449 of SEQ ID NO: 16) (human); assay: binding to 7-10 amino acid peptides immobilized on cellulose membrane
T11 peptide: ANIVPETSPES
Description: None of the other ferroportin-binding antibodies bound appreciably to this peptide. The location of the 31A5 epitope was further narrowed by detecting binding to ferroportin peptides ranging in length from 7 to 10 amino acids immobilized on a cellulose membrane. […] Cysteine residue 326 of SEQ ID NO: 16 is located in a different extracellular loop from the loop containing the 31A5 epitope (i.e., loop 3 of FIG. 1A).

Binder	decreased intracellular concentration of iron (IRE beta-lactamase reporter, 293/Fpn/BLA cells, 36 nM hepcidin), IC50 [1] [nM]	binding result [2]	preserved ferroportin activity (ferroportin-V5 fluorescence after 37 nM hepcidin), IC50 [3] [nM]	further results
antibody 38E3 (antibody, V domains shown) VH: QVQLVQSGAEVKKPGSSVKVSCKASGYTLTGYYMHWVRQAPGQGLEWMGWINPHTGGKNYAQKFQGRVTLTRDTSISTAYMELNSLRSDDTAVYYCARDPSLSVTGPSFYYYGLDVWGQGTTVTVSS VL: not shown	15	binds	–	–
antibody 37B9 (antibody, V domains shown) VH: QVQLVQSGAEVKKPGSSVKVSCKASGYTLTGYYMHWVRQAPGQGLEWMGWINPHTGGKNYAQRFQGRVTLTRDTSVNTAYMELNTLRSDDTAVYYCARDPSLVVTGPSFYYYGLDVWGQGTTVTVSS VL: not shown	3.6	binds	0.2	–
antibody 37C8 (antibody, V domains shown) VH: QVQLVQSGAEVKKPGSSVKVSCKASGYTLTGYYMHWVRQAPGQGLEWMGWINPHTGGKNYAQKFQGRVTLTRDTSINTAYMELNTLRSDDTAVYYCARDPSIAVAGPSFYYYGLDVWGQGTTVTVSS VL: not shown	0.8	binds	0.2	–
antibody 37G8 (antibody, V domains shown) VH: QVQLVQSGAEVKKPGSSVKVSCKASGYTLTGYYMHWVRQAPGQGLEWMGWINPHTGGKNYAQKFQGRVTLTRDTSINTAYMELNTLRSDDTAVYYCARDPSLVVTGPSFYYYGLDVWGQGTTVTVSS VL: DIVMTQTPLSSPVTHGQPASISCRSSQSLVHSDGNTYLSWLQQRPGQPPRLLIYKISNRLSGVPDRFSGSGTGTDFTLKISRVEAEDVGVYVCMQATQFPWTFGQGTKVEIK	1.6	binds	0.8	–
antibody 38C8 (antibody, V domains shown) VH: QVQLVQSGAEVKKPGSSVKVSCKASGYTLTGYYMHWVRQAPGQGLEWMGWINPHTGGKNYGQKFQGRVTLTRDTSINTAYMELNSLRSDDTAVYYCARDPSISVAGPSFYYFGLDVWGQGTTVTVSS VL: not shown	0.9	binds	0.3	–
antibody 38G6 (antibody, V domains shown) VH: EVQVVESGGGLVQPGGSLRLSCAASGFTFSSYSVNWVRQAPGKGLEWVSYISGSSSTVHYADSVKGRFTISRDTAKNSVYLQLNSLRDEDTALYYCARWGTRQGHYFGMDVWGQGTTVTVSS VL: QPVLTQPPSASASLGASVTLTCTLSSGYNNYKVDWFQQRPGRGPRFVMRVGTGGIVGSKGDGIPDRFSVLGSGLNRYLTIKNIQEEDESDYHCGADHASGNNFVYVFGTGTKVTVL	4.3	–	1.9	binding result [4]: binds
antibody 37A2 (antibody, V domains shown) VH: QVQLVESGGGVVQPGRSLRLSCAASGFTFSGYGMHWVRQAPGRGLEWVAVIWPDGTNKYYADSVKGRFTISRDNSKNKLYLQMNSLRAEDTAVYYCARGGATAVFGMNVWGQGTTVTVSS VL: SYELTQPPSVSVSPGQTARITCSGDELPKQYAYWYQQKAGQAPVMVIHKDSERPSGIPERFSGSSAGTIVTLTISGVQAEDEADYYCQSPDSRRTVIFGGGTKLTVL	4.5	–	2.5	binding result [5]: binds
antibody 38A4 (antibody, V domains shown) VH: EVQLLESGGGLVQPGGSLRLSCAASGFTFSSFAMTWVRQAPGKGLEWVSAIGGSGRNTYYADSVKGRFTISRDNSKNTLYLQMSSLRAEDTAVYYCAKEGAMARPPRGLDVWGQGTTVTVSS VL: not shown	0.4	–	2.8	binding result [6]: binds
antibody 38D2 (antibody, V domains shown) VH: QVQLVQSGAEVKKPGASVKVSCKASGYTLTGYYLHWVRQAPGQELEWMGWINPFTGATDYAQKFQGRVTMTRDTSINTAHMELSRLRSDDTAVYYCARDPSLQNSYHYYVMDVWGQGTTVTVSS VL: not shown	10	–	5.4	binding result [7]: binds; binding result [8]: binds
anti-ferroportin antibody 31A5 (antibody, V domains shown, the ends of the mature chains (466, 239) are printed in CLM-00028; also called monoclonal 31A5; mouse anti-human ferroportin antibody) VH: QVQLQQSGAELARPGASVKLSCKASGYTFTSYGISWVKQRTGQGLEWIGEIYPRSGNAYYNEKFKVKATLTIDKSSSTAYMELRSLTSEDSAVYFCGGNYYWGQGTTLTVSS VL: not shown	30	–	–	binding result [9]: no binding; binding result [10]: no binding; binding result [11]: binds
